# Data published in PMC7338052.
# Biological target: endogenous CHK2 (human (endogenous in LNCaP)) (UniProt O96017)
# Assay: co-IP; LNCaP cells expressing wtAR, S81A or S308A for 48 hr; untreated or 6 Gy IR; endogenous CHK2 immunoprecipitated one hour after IR from 1 mg lysate; blotted for AR
# Chain of UniProt O96017 (O96017 whole entry): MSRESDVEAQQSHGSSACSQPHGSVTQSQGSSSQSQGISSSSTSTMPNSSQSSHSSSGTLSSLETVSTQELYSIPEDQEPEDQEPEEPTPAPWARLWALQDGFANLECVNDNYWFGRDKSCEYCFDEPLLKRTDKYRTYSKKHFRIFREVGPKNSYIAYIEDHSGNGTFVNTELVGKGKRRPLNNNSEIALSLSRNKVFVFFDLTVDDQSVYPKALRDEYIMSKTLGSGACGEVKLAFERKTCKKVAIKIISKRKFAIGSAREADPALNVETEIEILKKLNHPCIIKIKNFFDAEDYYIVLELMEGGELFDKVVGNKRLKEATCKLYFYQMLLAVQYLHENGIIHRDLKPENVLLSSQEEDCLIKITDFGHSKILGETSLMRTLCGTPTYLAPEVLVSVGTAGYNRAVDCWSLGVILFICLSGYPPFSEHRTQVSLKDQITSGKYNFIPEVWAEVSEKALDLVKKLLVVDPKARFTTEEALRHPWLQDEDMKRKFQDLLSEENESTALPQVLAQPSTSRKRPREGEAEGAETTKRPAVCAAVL
substance,measurement,value
wtAR expressed in LNCaP cells (from UniProt P10275 1-920) (receptor),fold change of AR co-immunoprecipitated with CHK2 after IR against untreated cells,4 fold
